According to paper PMC10932818 (Cancer immunology research, 2024):

Molecular target: recombinant Fc-tagged extracellular domain of LILRB3 (LILRB3-ECD) (human, UniProt O75022 24-443, glycosylated (production from mammalian NS0 cells))
Assay: BLI

Chain of recombinant Fc-tagged extracellular domain of LILRB3 (LILRB3-ECD) (O75022 24-443): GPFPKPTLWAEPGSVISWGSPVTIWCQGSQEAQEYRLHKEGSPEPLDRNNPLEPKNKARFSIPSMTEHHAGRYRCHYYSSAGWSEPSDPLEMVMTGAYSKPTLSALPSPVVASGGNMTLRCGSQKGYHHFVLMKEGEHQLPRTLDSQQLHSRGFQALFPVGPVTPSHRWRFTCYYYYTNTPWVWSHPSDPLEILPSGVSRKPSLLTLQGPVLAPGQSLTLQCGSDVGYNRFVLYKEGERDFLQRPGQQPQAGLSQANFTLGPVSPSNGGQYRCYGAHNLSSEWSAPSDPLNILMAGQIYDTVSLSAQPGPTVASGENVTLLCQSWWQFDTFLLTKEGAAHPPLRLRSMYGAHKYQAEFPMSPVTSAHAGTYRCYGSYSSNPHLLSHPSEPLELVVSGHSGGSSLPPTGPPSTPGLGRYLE

Kd: 44 nM
B1: recombinant human galectin-4 (Galectin-4-His) (natural protein, UniProt P56470 1-323, looked up)
chain: MAYVPAPGYQPTYNPTLPYYQPIPGGLNVGMSVYIQGVASEHMKRFFVNFVVGQDPGSDVAFHFNPRFDGWDKVVFNTLQGGKWGSEERKRSMPFKKGAAFELVFIVLAEHYKVVVNGNPFYEYGHRLPLQMVTHLQVDGDLQLQSINFIGGQPLRPQGPPMMPPYPGPGHCHQQLNSLPTMEGPPTFNPPVPYFGRLQGGLTARRTIIIKGYVPPTGKSFAINFKVGSSGDIALHINPRMGNGTVVRNSLLNGSWGSEEKKITHNPFGPGQFFDLSIRCGLDRFKVYANGQHLFDFAHRLSAFQRVDTLEIQGDVTLSYVQI
